Reference: patent US20130101582A1, “Tiki1 and Tiki2, Wnt Inhibitors” (CHILDREN'S MEDICAL CENTER CORPORATION, priority 2010, published 2013)

What was measured:
Wnt3a = Wnt3a (Mus musculus, UniProt P27467); assay: Triton X-114 phase separation of Wnt3a secreted from Tiki-expressing cells; type: cell-based; design: expressed in transfected cells; host or cells: mouse L cells (Wnt3a-expressing); HEK293T
Excerpt: FIG. 6A is a gel showing that Tiki inactivates Wnt3a by regulating Wnt3a acylation/palmitoylation. A Triton X-114 phase separation experiment is shown in 6A. […] T, total; Aq, aqueous; De, detergent.
FIG. 6B is a gel showing that Wnt3a secreted from Tiki1 or Tiki2 but not GFP-expressing HEK293T cells partitioned in the aqueous phase.
C77 palmitoylation is required for Wnt3a activity (Willert, K. et al., Nature 423, 448-452 (2003)) and binding to both Fz and LRP6 (Komekado, H. et al., Genes Cells 12, 521-534 (2007); Cong, F. et al., Development 131, 5103-5115 (2004)), while S209 acylation is critical for Wnt3a secretion (Takada, R. et al., Dev Cell 11, 791-801 (2006)). Thus Tiki proteins may affect C77 palmitoylation but not S209 acylation. The palmitate adduct at C77 is the primary contributor to Wnt3a hydrophobicity because palmitoylated Wnt3a is partitioned in the Triton X-114 detergent phase whereas Wnt3a lacking the palmitate is soluble in the aqueous phase (Willert, K. et al., Nature 423, 448-452 (2003); Komekado, H. et al., Genes Cells 12, 521-534 (2007)).

TOPFLASH reporter = TOPFLASH reporter activation by Wnt3a produced from Tiki2-expressing L cells; type: cell-based; settings: Wnt3a CM
Excerpt: (§1) As Tiki proteins are related to bacterial proteins of unknown function, it was speculated that Tiki may antagonize Wnt signaling through a novel mechanism, possibly in an enzymatic fashion. Human Tiki2 was stably expressed in L cells or Wnt3a-expressing L cells (human Tiki1 was poorly expressed in L cells). […] In fact Wnt3a CM restored beta-catenin stabilization in Wnt3a-expressing cells that also expressed Tiki2 (FIG. 5A).

mFz8CRD-IgG = molecular target: T1, mFz8CRD-IgG (Mus musculus, UniProt Q61091); assay: Binding of Wnt3a CM to mFz8CRD-IgG, protein G precipitation
T1 construct: using the extracellular domain of mouse Fz8 (mFz8CRD-IgG) or LRP6 (LRP6N-IgG)
T1 sequence (Q61091 30-151 limits assumed): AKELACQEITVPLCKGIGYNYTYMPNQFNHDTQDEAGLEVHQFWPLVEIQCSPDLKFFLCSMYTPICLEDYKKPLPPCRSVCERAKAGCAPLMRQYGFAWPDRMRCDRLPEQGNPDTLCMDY
Procedure: (§2) Wnt3a CM was incubated with LRP6N-IgG or mFz8CRD-IgG. The protein complexes were precipitated by protein G agarose and subjected for Western blotting.
as §1

LRP6N-IgG = molecular target: T2, LRP6N-IgG (Homo sapiens, UniProt O75581); assay: Binding of Wnt3a CM to LRP6N-IgG, protein G precipitation
T2 construct: using the extracellular domain of mouse Fz8 (mFz8CRD-IgG) or LRP6 (LRP6N-IgG)
T2 sequence (O75581 20-1370 limits assumed): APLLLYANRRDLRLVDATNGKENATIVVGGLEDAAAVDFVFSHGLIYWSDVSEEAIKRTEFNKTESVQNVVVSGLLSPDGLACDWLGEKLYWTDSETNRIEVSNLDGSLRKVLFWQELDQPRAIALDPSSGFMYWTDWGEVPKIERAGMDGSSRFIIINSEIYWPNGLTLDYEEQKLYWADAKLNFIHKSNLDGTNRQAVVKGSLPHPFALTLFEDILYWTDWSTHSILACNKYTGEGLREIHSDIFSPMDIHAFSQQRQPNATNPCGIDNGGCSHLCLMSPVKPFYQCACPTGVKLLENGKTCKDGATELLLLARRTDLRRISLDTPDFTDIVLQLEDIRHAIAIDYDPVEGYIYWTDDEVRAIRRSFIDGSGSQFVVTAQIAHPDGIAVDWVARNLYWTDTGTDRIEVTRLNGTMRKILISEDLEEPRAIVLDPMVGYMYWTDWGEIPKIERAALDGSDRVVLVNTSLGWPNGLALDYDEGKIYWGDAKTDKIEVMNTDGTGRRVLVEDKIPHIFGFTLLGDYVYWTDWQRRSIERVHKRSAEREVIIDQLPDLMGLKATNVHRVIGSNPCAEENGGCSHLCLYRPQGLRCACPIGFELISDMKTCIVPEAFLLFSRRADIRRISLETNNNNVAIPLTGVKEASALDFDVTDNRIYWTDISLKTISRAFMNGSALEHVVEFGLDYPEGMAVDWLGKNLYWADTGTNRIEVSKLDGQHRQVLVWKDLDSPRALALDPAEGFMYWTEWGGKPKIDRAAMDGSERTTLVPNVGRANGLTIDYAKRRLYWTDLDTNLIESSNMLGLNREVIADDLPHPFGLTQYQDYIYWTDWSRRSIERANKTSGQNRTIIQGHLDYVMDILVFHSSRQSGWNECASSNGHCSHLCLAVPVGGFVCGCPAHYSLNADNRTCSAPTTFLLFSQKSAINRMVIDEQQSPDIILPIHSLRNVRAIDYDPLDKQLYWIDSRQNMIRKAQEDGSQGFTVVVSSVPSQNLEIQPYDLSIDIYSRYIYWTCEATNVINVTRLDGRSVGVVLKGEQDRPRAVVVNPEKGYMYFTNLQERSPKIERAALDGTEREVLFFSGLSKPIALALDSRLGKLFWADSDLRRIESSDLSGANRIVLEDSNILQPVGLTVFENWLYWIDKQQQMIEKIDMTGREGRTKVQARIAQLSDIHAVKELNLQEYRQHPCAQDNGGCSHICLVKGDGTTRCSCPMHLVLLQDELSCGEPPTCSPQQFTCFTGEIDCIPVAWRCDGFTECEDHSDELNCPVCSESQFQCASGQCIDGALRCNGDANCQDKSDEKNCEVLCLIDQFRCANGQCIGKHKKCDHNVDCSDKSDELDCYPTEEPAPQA
Procedure: as §2, §1

Wnt3a, sequence (P27467 19-352): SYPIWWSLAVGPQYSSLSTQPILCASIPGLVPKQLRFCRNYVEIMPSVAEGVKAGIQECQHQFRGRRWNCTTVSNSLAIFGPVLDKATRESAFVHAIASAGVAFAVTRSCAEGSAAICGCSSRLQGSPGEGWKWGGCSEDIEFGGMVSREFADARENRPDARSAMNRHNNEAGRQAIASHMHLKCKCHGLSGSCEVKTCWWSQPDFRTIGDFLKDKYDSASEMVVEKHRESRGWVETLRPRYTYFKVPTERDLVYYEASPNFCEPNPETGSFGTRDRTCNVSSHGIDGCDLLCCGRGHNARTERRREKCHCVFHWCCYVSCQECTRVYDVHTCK

B1: Tiki2: Human Tiki2 (XP 371250/LOC388630) (SEQ ID NO:2), expressed in L or HEK293T cells (protein, listed as Homo sapiens)
chain: MHAALAGPLLAALLATARARPQPPDGGQCRPPGSQRDLNSFLWTIRRDPPAYLFGTIHVPYTRVWDFIPDNSKAAFQASTRVYFELDLTDPYTISALASCQLLPHGENLQDVLPHELYWRLKRHLDYVKLMMPSWMTPAQRGKGLYADYLFNAIAGNWERKRPVWVMLMVNSLTERDVRFRGVPVLDLYLAQQAEKMKKTTGAVEQVEEQCHPLNNGLNFSQVLFALNQTLLQQESVRAGSLQASYTTEDLIKHYNCGDLSAVIFNHDTSQLPNFINTTLPPHEQVTAQEIDSYFRQELIYKRNERMGKRVMALLRENEDKICFFAFGAGHFLGNNTVIDILRQAGLEVDHTPAGQAIHSPAPQSPAPSPEGTSTSPAPVTPAAAVPEAPSVTPTAPPEDEDPALSPHLLLPDSLSQLEEFGRQRKWHKRQSTHQRPRQFNDLWVRIEDSTTASPPPLPLQPTHSSGTAKPPFQLSDQLQQQDPPGPASSSAPTLGLLPAIATTIAVCFLLHSLGPS
Wnt3a; HEK293T cells
  Partitioning of secreted Wnt3a in Triton X-114 phase separation: partitioned exclusively in the aqueous phase
Wnt3a; L cells
  Partitioning of secreted Wnt3a in Triton X-114 phase separation: partitioned exclusively in the aqueous phase
TOPFLASH reporter
  Activity of Wnt3a produced from Tiki2-expressing L cells in activation of TOPFLASH reporter expression: minimal activity
mFz8CRD-IgG
  Binding of Wnt3a secreted from Tiki2-expressing cells to Fz (mFz8CRD-IgG): failed to bind to either Fz or LRP6
LRP6N-IgG
  Binding of Wnt3a secreted from Tiki2-expressing cells to LRP6 (LRP6N-IgG): failed to bind to either Fz or LRP6
